The Km is the substrate concentration at which the rate is half of its maximum.

The test system of one series is T1, O=C(O)c1ccccc1O.
T1 construct: full ORF 1014 bp, 338 residues as printed; modified pGEX (GST) vector with C-terminal 3xMyc; E. coli BL21(DE3); glutathione Sepharose purified; tag removal not mentioned
Nature of the series: purified protein. In kind it is biochemical, Arachis hypogaea. Conditions: 1 mM 2-oxoglutarate, 1 mM ascorbate, 0.4 mM FeSO4, 0.1 mg/mL catalase, 5 mM DTT, 50 mM phosphate pH 6.8, 40 °C, 30 min.

Substrate in the series “purified protein”: O=C(O)c1ccccc1O
The series can be described thus: purified protein. In kind it is biochemical, Arachis hypogaea. Conditions: 1 mM 2-oxoglutarate, 1 mM ascorbate, 0.4 mM FeSO4, 0.1 mg/mL catalase, 5 mM DTT, 50 mM phosphate pH 6.8, 40 °C, 30 min.

As to AhS5H2 (Arachis hypogaea), the Michaelis-Menten constant (Km) in the series with O=C(O)c1ccccc1O came to 190.52 ± 26.33 µM.

B1: AhS5H1 (Arachis hypogaea) (protein)
chain: MANTKPLLLADQVTNMKHIPLNFIRPLNDRPNLQNLQSSNDNNESIPIIDLQGLDEDNDASNRSQIIHNIGQACQDYGFFQIVNHGVPEDVVGKMMKVGKAFFDLPESERMKNYSDDPSKTTRLSTSFNVKTEKVANWRDFLRLHCHPLEDYIQEWPTNPPSFREDVGEYSKHMRKLSLKLLEAISESLGLEKDYMEKALGKHGQHMAINYYPPCPEPDLTYGLPAHADPNAITILLQNHVPGLQVLKDGHWVTVKHVPNTFIVNIGDQIQVISNDKYKSVLHRALVNCEKERMSIPTFYCPSPEALVGPAPQLIDQHNDPPKYTNFTYAEYYHKFWNRGLSKETCVDLFKV
notes: full ORF 1059 bp, 353 residues as printed; modified pGEX (GST) vector with C-terminal 3xMyc; E. coli BL21(DE3); glutathione Sepharose purified; tag removal not mentioned
Regarding B1, in the series “purified protein”, the Km came out at 44.72 ± 6.95 µM.

The values are drawn from publication PMC10531710, “Overexpression of the First Peanut-Susceptible Gene, AhS5H1 or AhS5H2, Enhanced Susceptibility to Pst DC3000 in Arabidopsis” (International Journal of Molecular Sciences, 2023).
